Experiments:
in vivo [1] = conditions: male, NODSCID 1L2RγKO, mouse, iv, total radioactivity
Method: LNCaP cell line was obtained from ATCC (LNCaP clone FGC, CRL-1740). […] Cells were cultured in PRM I 1640 medium supplemented with 10% FBS, penicillin (100 U/mL) and streptomycin (100 μg/mL) at 37° C. in a humidified incubator containing 5% CO2. Cells grown to 80-90% confluence were then washed with sterile phosphate-buffered saline (1× PBS pH 7.4) and collected by trypsinization. The collected cells concentration was counted with a Hausser Scientific (Horsham, Pa.) Hemacytometer.
Imaging and biodistribution experiments were performed using NODSCID 1 L2RγKO male mice. Mice were anesthetized by inhalation with 2% isoflurane in oxygen, and implanted subcutaneously with 1×10^7 LNCaP cells behind left shoulder. Mice were imaged or used in biodistribution studies when the tumor grew up to reach 5-8 mm in diameter during 5-6 weeks.
PET imaging experiments were conducted using Siemens Inveon micro PET/CT scanner. Each tumor bearing mouse was injected 6-8 MBq of Ga-68 labeled tracer through the tail vein under anesthesia (2% isoflurane in oxygen). The mice were allowed to recover and roam freely in their cage. After 50 min, the mice were sedated again with 2% isoflurane in oxygen inhalation and positioned in the scanner. A 10-min CT scan was conducted first for localization and attenuation correction after segmentation for reconstructing the PET images. Then, a 10-min static PET imaging was performed to determined uptake in tumor and other organs. The mice were kept warm by a heating pad during acquisition. For biodistribution studies, the mice were injected with the radiotracer as described above. The mice was anesthetized with 2% isoflurane inhalation, and euthanized by CO2 inhalation. Blood was withdrawn immediately from the heart, and the organs/tissues of interest were collected. The collected organs/tissues were weighed and counted using a Perkin Elmer (Waltham, Mass.) Wizard2 2480 gamma counter. The uptake in each organ/tissue was normalized to the injected dose using a standard curve, and expressed as the percentage of the injected dose per gram of tissue (% ID/g).
LNCaP cell line was obtained from ATCC (LNCaP clone FGC, CRL-1740). […] Cells were cultured in PRM I 1640 medium supplemented with 10% FBS, penicillin (100 U/mL) and streptomycin (100 μg/mL) at 37° C. in a humidified incubator containing 5% CO2. Cells grown to 80-90% confluence were then washed with sterile phosphate-buffered saline (1× PBS pH 7.4), and collected by trypsinization. The collected cell concentration was counted with a Hausser Scientific (Horsham, Pa.) Hemacytometer.
Imaging and biodistribution experiments were performed using NODSCID 1L2RγKO male mice. Mice were anesthetized by inhalation with 2% isoflurane in oxygen, and implanted subcutaneously with 1×10^7 LNCaP cells behind left shoulder. Mice were imaged or used in biodistribution studies when the tumor grew up to reach 5-8 mm in diameter during 5-6 weeks.
PET imaging experiments were conducted using Siemens Inveon micro PET/CT scanner. Each tumor bearing mouse was injected 6-8 MBq of Ga-68 or F-18 labeled tracer through the tail vein under anesthesia (2% isoflurane in oxygen). The mice were allowed to recover and roam freely in their cage. After 50 min, the mice were sedated again with 2% isoflurane in oxygen inhalation and positioned in the scanner. A 10-min CT scan was conducted first for localization and attenuation correction after segmentation for reconstructing the PET images. Then, a 10-min static PET imaging was performed to determined uptake in tumor and other organs.
For biodistribution studies, the mice were injected with the radiotracer as described above.

in vivo [2] = assay: in vivo; parameters: species or system mice; conditions: male, NODSCID 1L2RγKO, mouse, iv, total radioactivity

SMILES: O=C(O)CC[C@H](NC(=O)N[C@@H](CCCCNC(=O)[C@H](Cc1c2ccccc2cc2ccccc12)NC(=O)[C@H]1CC[C@H](CNC(=O)CN2CCN(CC(=O)O)CCN(CC(=O)O)CCN(CC(=O)O)CC2)CC1)C(=O)O)C(=O)O [68Ga-HTK03041, metal not drawn]
- tissue uptake at 1 h (in vivo [1]; Adrenal glands uptake): 8.9 ± 2.56 %ID/g
- tissue uptake at 1 h (in vivo [1]; Blood uptake): 1.43 ± 0.3 %ID/g
- tissue uptake at 1 h (in vivo [1]; Bone uptake): 1.29 ± 0.45 %ID/g
- tissue uptake at 1 h (in vivo [1]; Brain uptake): 0.1 ± 0.05 %ID/g
- tissue uptake at 1 h (in vivo [1]; Fat uptake): 2.06 ± 0.59 %ID/g
- tissue uptake at 1 h (in vivo [1]; Heart uptake): 1.82 ± 0.21 %ID/g
- tissue uptake at 1 h (in vivo [1]; Intestine uptake): 1.14 ± 0.18 %ID/g
- tissue uptake at 1 h (in vivo [1]; Kidneys uptake): 170 ± 26.4 %ID/g
- tissue uptake at 1 h (in vivo [1]; Lacrimal uptake): 2.44 ± 1.79 %ID/g
- tissue uptake at 1 h (in vivo [1]; Liver uptake): 1.38 ± 0.25 %ID/g
- tissue uptake at 1 h (in vivo [1]; Lungs uptake): 4.32 ± 0.62 %ID/g
- tissue uptake at 1 h (in vivo [1]; Muscle uptake): 0.75 ± 0.09 %ID/g
- tissue uptake at 1 h (in vivo [1]; Pancreas uptake): 1.47 ± 0.16 %ID/g
- tissue uptake at 1 h (in vivo [1]; Salivary uptake): 4.99 ± 0.88 %ID/g
- tissue uptake at 1 h (in vivo [1]; Seminal uptake): 1.03 ± 0.27 %ID/g
- tissue uptake at 1 h (in vivo [1]; Spleen uptake): 8.95 ± 3.22 %ID/g
- tissue uptake at 1 h (in vivo [1]; Stomach uptake): 0.41 ± 0.11 %ID/g
- tissue uptake at 1 h (in vivo [1]; Tail uptake): 1.36 ± 0.45 %ID/g
- tissue uptake at 1 h (in vivo [1]; Testes uptake): 1.34 ± 0.22 %ID/g
- tissue uptake at 1 h (in vivo [1]; Thyroid uptake): 2.48 ± 0.44 %ID/g
- tissue uptake at 1 h (in vivo [1]; Tumor uptake): 23.1 ± 6.11 %ID/g
- excreta dose per gram or mL at 1 h (in vivo [1]; Urine uptake): 173 ± 93 %ID/g

SMILES: COc1ccc(CCCC(=O)NCC(=O)N[C@@H](CCCCNC(=O)CN2CCN(CC(=O)O)CCN(CC(=O)O)CCN(CC(=O)O)CC2)C(=O)NC[C@H]2CC[C@H](C(=O)N[C@@H](Cc3c4ccccc4cc4ccccc34)C(=O)NCCCC[C@H](NC(=O)N[C@@H](CSCC(=O)O)C(=O)O)C(=O)O)CC2)cc1 [177Lu-HTK04048, metal not drawn]
- tissue uptake at 1 h (in vivo [2]; Adrenal glands uptake): 3.95 ± 0.34 %ID/g
- tissue uptake at 4 h (in vivo [2]; Adrenal glands uptake): 2.1 ± 0.22 %ID/g
- tissue uptake at 24 h (in vivo [2]; Adrenal glands uptake): 0.49 ± 0.04 %ID/g
- tissue uptake at 72 h (in vivo [2]; Adrenal glands uptake): 0.34 ± 0.03 %ID/g
- tissue uptake at 120 h (in vivo [2]; Adrenal glands uptake): 0.37 ± 0.09 %ID/g
- tissue uptake at 1 h (in vivo [2]; Blood uptake): 17.7 ± 2.05 %ID/g
- tissue uptake at 4 h (in vivo [2]; Blood uptake): 12.3 ± 1.56 %ID/g
- tissue uptake at 24 h (in vivo [2]; Blood uptake): 0.68 ± 0.11 %ID/g
- tissue uptake at 72 h (in vivo [2]; Blood uptake): 0.12 ± 0.01 %ID/g
- tissue uptake at 120 h (in vivo [2]; Blood uptake): 0.05 ± 0.02 %ID/g
- tissue uptake at 1 h (in vivo [2]; Bone uptake): 1.04 ± 0.2 %ID/g
- tissue uptake at 4 h (in vivo [2]; Bone uptake): 0.74 ± 0.09 %ID/g
- tissue uptake at 24 h (in vivo [2]; Bone uptake): 0.11 ± 0.02 %ID/g
- tissue uptake at 72 h (in vivo [2]; Bone uptake): 0.07 ± 0.01 %ID/g
- tissue uptake at 120 h (in vivo [2]; Bone uptake): 0.07 ± 0.01 %ID/g
- tissue uptake at 1 h (in vivo [2]; Brain uptake): 0.31 ± 0.02 %ID/g
- tissue uptake at 4 h (in vivo [2]; Brain uptake): 0.18 ± 0.02 %ID/g
- tissue uptake at 24 h (in vivo [2]; Brain uptake): 0.03 %ID/g
- tissue uptake at 72 h (in vivo [2]; Brain uptake): 0.01 %ID/g
- tissue uptake at 120 h (in vivo [2]; Brain uptake): 0.01 %ID/g
- tissue uptake at 1 h (in vivo [2]; Fat uptake): 1.32 ± 0.17 %ID/g
- tissue uptake at 4 h (in vivo [2]; Fat uptake): 1 ± 0.13 %ID/g
- tissue uptake at 24 h (in vivo [2]; Fat uptake): 0.15 ± 0.06 %ID/g
- tissue uptake at 72 h (in vivo [2]; Fat uptake): 0.08 ± 0.03 %ID/g
- tissue uptake at 120 h (in vivo [2]; Fat uptake): 0.06 ± 0.03 %ID/g
- tissue uptake at 1 h (in vivo [2]; Heart uptake): 4.41 ± 0.22 %ID/g
- tissue uptake at 4 h (in vivo [2]; Heart uptake): 2.99 ± 0.36 %ID/g
- tissue uptake at 24 h (in vivo [2]; Heart uptake): 0.36 ± 0.04 %ID/g
- tissue uptake at 72 h (in vivo [2]; Heart uptake): 0.16 ± 0.01 %ID/g
- tissue uptake at 120 h (in vivo [2]; Heart uptake): 0.1 ± 0.02 %ID/g
- tissue uptake at 1 h (in vivo [2]; Intestine uptake): 1.26 ± 0.2 %ID/g
- tissue uptake at 4 h (in vivo [2]; Intestine uptake): 1.03 ± 0.1 %ID/g
- tissue uptake at 24 h (in vivo [2]; Intestine uptake): 0.49 ± 0.41 %ID/g
- tissue uptake at 72 h (in vivo [2]; Intestine uptake): 0.15 ± 0.09 %ID/g
- tissue uptake at 120 h (in vivo [2]; Intestine uptake): 0.05 ± 0.02 %ID/g
- tissue uptake at 1 h (in vivo [2]; Kidneys uptake): 14.5 ± 3.33 %ID/g
- tissue uptake at 4 h (in vivo [2]; Kidneys uptake): 12.4 ± 1.36 %ID/g
- tissue uptake at 24 h (in vivo [2]; Kidneys uptake): 5.06 ± 0.91 %ID/g
- tissue uptake at 72 h (in vivo [2]; Kidneys uptake): 2.28 ± 0.24 %ID/g
- tissue uptake at 120 h (in vivo [2]; Kidneys uptake): 1.69 ± 0.58 %ID/g
- tissue uptake at 1 h (in vivo [2]; Lacrimal uptake): 0.5 ± 0.05 %ID/g
- tissue uptake at 4 h (in vivo [2]; Lacrimal uptake): 0.32 ± 0.13 %ID/g
- tissue uptake at 24 h (in vivo [2]; Lacrimal uptake): 0.05 ± 0.01 %ID/g
- tissue uptake at 72 h (in vivo [2]; Lacrimal uptake): 0.01 ± 0.01 %ID/g
- tissue uptake at 120 h (in vivo [2]; Lacrimal uptake): 0.01 ± 0.01 %ID/g
- tissue uptake at 1 h (in vivo [2]; Liver uptake): 3.95 ± 0.83 %ID/g
- tissue uptake at 4 h (in vivo [2]; Liver uptake): 2.16 ± 0.17 %ID/g
- tissue uptake at 24 h (in vivo [2]; Liver uptake): 0.45 ± 0.04 %ID/g
- tissue uptake at 72 h (in vivo [2]; Liver uptake): 0.26 ± 0.01 %ID/g
- tissue uptake at 120 h (in vivo [2]; Liver uptake): 0.22 ± 0.08 %ID/g
- tissue uptake at 1 h (in vivo [2]; Lungs uptake): 9.01 ± 0.91 %ID/g
- tissue uptake at 4 h (in vivo [2]; Lungs uptake): 6.35 ± 0.78 %ID/g
- tissue uptake at 24 h (in vivo [2]; Lungs uptake): 1.09 ± 0.33 %ID/g
- tissue uptake at 72 h (in vivo [2]; Lungs uptake): 0.29 ± 0.05 %ID/g
- tissue uptake at 120 h (in vivo [2]; Lungs uptake): 0.15 ± 0.05 %ID/g
- tissue uptake at 1 h (in vivo [2]; Muscle uptake): 1.42 ± 0.11 %ID/g
- tissue uptake at 4 h (in vivo [2]; Muscle uptake): 1 ± 0.1 %ID/g
- tissue uptake at 24 h (in vivo [2]; Muscle uptake): 0.11 ± 0.01 %ID/g
- tissue uptake at 72 h (in vivo [2]; Muscle uptake): 0.04 ± 0.01 %ID/g
- tissue uptake at 120 h (in vivo [2]; Muscle uptake): 0.05 ± 0.05 %ID/g
- tissue uptake at 1 h (in vivo [2]; Pancreas uptake): 1.7 ± 0.17 %ID/g
- tissue uptake at 4 h (in vivo [2]; Pancreas uptake): 1.21 ± 0.14 %ID/g
- tissue uptake at 24 h (in vivo [2]; Pancreas uptake): 0.17 ± 0.03 %ID/g
- tissue uptake at 72 h (in vivo [2]; Pancreas uptake): 0.07 ± 0.01 %ID/g
- tissue uptake at 120 h (in vivo [2]; Pancreas uptake): 0.04 ± 0.01 %ID/g
- tissue uptake at 1 h (in vivo [2]; Salivary uptake): 2.7 ± 0.29 %ID/g
- tissue uptake at 4 h (in vivo [2]; Salivary uptake): 2.01 ± 0.17 %ID/g
- tissue uptake at 24 h (in vivo [2]; Salivary uptake): 0.42 ± 0.07 %ID/g
- tissue uptake at 72 h (in vivo [2]; Salivary uptake): 0.2 ± 0.03 %ID/g
- tissue uptake at 120 h (in vivo [2]; Salivary uptake): 0.14 ± 0.02 %ID/g
- tissue uptake at 1 h (in vivo [2]; Seminal uptake): 1.14 ± 0.17 %ID/g
- tissue uptake at 4 h (in vivo [2]; Seminal uptake): 0.92 ± 0.2 %ID/g
- tissue uptake at 24 h (in vivo [2]; Seminal uptake): 0.11 ± 0.03 %ID/g
- tissue uptake at 72 h (in vivo [2]; Seminal uptake): 0.06 ± 0.01 %ID/g
- tissue uptake at 120 h (in vivo [2]; Seminal uptake): 0.04 ± 0.01 %ID/g
- tissue uptake at 1 h (in vivo [2]; Spleen uptake): 2.54 ± 0.6 %ID/g
- tissue uptake at 4 h (in vivo [2]; Spleen uptake): 2.1 ± 0.39 %ID/g
- tissue uptake at 24 h (in vivo [2]; Spleen uptake): 0.6 ± 0.05 %ID/g
- tissue uptake at 72 h (in vivo [2]; Spleen uptake): 0.62 ± 0.14 %ID/g
- tissue uptake at 120 h (in vivo [2]; Spleen uptake): 0.92 ± 0.3 %ID/g
- tissue uptake at 1 h (in vivo [2]; Stomach uptake): 0.74 ± 0.14 %ID/g
- tissue uptake at 4 h (in vivo [2]; Stomach uptake): 0.81 ± 0.04 %ID/g
- tissue uptake at 24 h (in vivo [2]; Stomach uptake): 0.89 ± 0.84 %ID/g
- tissue uptake at 72 h (in vivo [2]; Stomach uptake): 0.23 ± 0.16 %ID/g
- tissue uptake at 120 h (in vivo [2]; Stomach uptake): 0.03 ± 0.01 %ID/g
- tissue uptake at 1 h (in vivo [2]; Tail uptake): 3.57 ± 0.35 %ID/g
- tissue uptake at 4 h (in vivo [2]; Tail uptake): 2.72 ± 0.61 %ID/g
- tissue uptake at 24 h (in vivo [2]; Tail uptake): 0.4 ± 0.17 %ID/g
- tissue uptake at 72 h (in vivo [2]; Tail uptake): 0.15 ± 0.03 %ID/g
- tissue uptake at 120 h (in vivo [2]; Tail uptake): 0.19 ± 0.13 %ID/g
- tissue uptake at 1 h (in vivo [2]; Testes uptake): 2.25 ± 0.3 %ID/g
- tissue uptake at 4 h (in vivo [2]; Testes uptake): 2.68 ± 0.16 %ID/g
- tissue uptake at 24 h (in vivo [2]; Testes uptake): 0.73 ± 0.32 %ID/g
- tissue uptake at 72 h (in vivo [2]; Testes uptake): 0.34 ± 0.03 %ID/g
- tissue uptake at 120 h (in vivo [2]; Testes uptake): 0.26 ± 0.04 %ID/g
- tissue uptake at 1 h (in vivo [2]; Thyroid uptake): 3.79 ± 0.23 %ID/g
- tissue uptake at 4 h (in vivo [2]; Thyroid uptake): 2.69 ± 0.26 %ID/g
- tissue uptake at 24 h (in vivo [2]; Thyroid uptake): 0.55 ± 0.07 %ID/g
- tissue uptake at 72 h (in vivo [2]; Thyroid uptake): 0.31 ± 0.04 %ID/g
- tissue uptake at 120 h (in vivo [2]; Thyroid uptake): 0.19 ± 0.01 %ID/g
- tissue uptake at 1 h (in vivo [2]; Tumor uptake): 15.6 ± 2.98 %ID/g
- tissue uptake at 4 h (in vivo [2]; Tumor uptake): 46.5 ± 28.4 %ID/g
- tissue uptake at 24 h (in vivo [2]; Tumor uptake): 54.3 ± 10.6 %ID/g
- tissue uptake at 72 h (in vivo [2]; Tumor uptake): 66.3 ± 18.7 %ID/g
- tissue uptake at 120 h (in vivo [2]; Tumor uptake): 74 ± 35.5 %ID/g

SMILES: O=C(O)CC[C@H](NC(=O)N[C@@H](CCCCNC(=O)[C@H](Cc1c2ccccc2cc2ccccc12)NC(=O)C1CCC(CNC(=O)CN2CCN(CC(=O)O)CCN(CC(=O)O)CCN(CC(=O)O)CC2)CC1)C(=O)O)C(=O)O (some centres unmarked) [HTK03041]
- tissue uptake at 1 h (in vivo [1]; kidney uptake): 170 %ID/g
